Absorbance (450 nm), affinity (unit not given) and Kd data for 2 molecules are collected here from patent US20200300873A1.

Test [1] deals with Hepcidin MAb 583. The test can be described thus: competitive ELISA on mAb 583 coated wells; competitor biotinylated hepcidin-25 tracer; standard at 0 ng/mL.
Test [2] addresses Hepcidin MAb 583. The test can be described thus: competitive ELISA on mAb 583 coated wells; competitor biotinylated hepcidin-25 tracer; standard at 10 ng/mL. (In general: An ELISA detects its analyte on a solid surface through an enzyme-linked reagent.)
The target of test [3] is Hepcidin MAb 583. The test can be described thus: competitive ELISA on mAb 583 coated wells; competitor biotinylated hepcidin-25 tracer; standard at 25 ng/mL.
In test [4] the target is Hepcidin MAb 583. The test can be described thus: competitive ELISA on mAb 583 coated wells; competitor biotinylated hepcidin-25 tracer; standard at 50 ng/mL.
The target in test [5] is Hepcidin MAb 583. Description: competitive ELISA on mAb 583 coated wells; competitor biotinylated hepcidin-25 tracer; standard at 100 ng/mL.
Test [6] deals with Hepcidin MAb 583. Description: competitive ELISA on mAb 583 coated wells; competitor biotinylated hepcidin-25 tracer; standard at 2.5 ng/mL.
The target in test [7] is Hepcidin MAb 583. The test can be described thus: competitive ELISA on mAb 583 coated wells; competitor biotinylated hepcidin-25 tracer; standard at 250 ng/mL.
Test [8] concerns the target Hepcidin MAb 583. Description: competitive ELISA on mAb 583 coated wells; competitor biotinylated hepcidin-25 tracer; standard at 1000 ng/mL.
Test [9] addresses T1, Human hepcidin peptide (hepcidin-25) (human).
T1 sequence (peptide): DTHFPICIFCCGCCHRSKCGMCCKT
Description: method not stated.

Test [10] has the same target. Description: Biacore (SPR); lower end of the estimated range 7-8 pM.
Test [11] has the same target. Description: Biacore (SPR); upper end of the estimated range 7-8 pM.

Sequence of Hepcidin MAb 583 (heavy, as listed by the source, chain 1 of 2): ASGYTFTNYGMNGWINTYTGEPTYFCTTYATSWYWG
Sequence of Hepcidin MAb 583 (light, as listed by the source, chain 2 of 2): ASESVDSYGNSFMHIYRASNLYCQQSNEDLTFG

In the case of DTHFPICIFCCGCCHRSKCGMCCKT [Human hepcidin peptide (hepcidin-25)], the Absorbance (450 nm) turned out to be 2.36 OD 450 nm with Hepcidin MAb 583 [1]; 1.61 OD 450 nm in the test with Hepcidin MAb 583 [2]; 0.9 OD 450 nm with Hepcidin MAb 583 [3]; 0.47 OD 450 nm in the test with Hepcidin MAb 583 [4]; 0.24 OD 450 nm with Hepcidin MAb 583 [5]; 2.14 OD 450 nm with Hepcidin MAb 583 [6]. The Absorbance (450 nm) with Hepcidin MAb 583 [7] came to 0.1 OD 450 nm; in the test with Hepcidin MAb 583 [8], 0.03 OD 450 nm.

B1: Hepcidin MAb 583 (antibody, from a related filing, V domains shown, part only)
VH: QIQLVQSGPELKKPGETVKISCKASGYTFTNYGMNWVKQAPGKGLKWMGWINTYTGEPTYADDFKGRFAFSLETSASTAYLQINNLKNEDTATYFCTTYATSWYWGQG
VL: DIVLTQSPASLAVSLGQRATISCRASESVDSYGNSFMHWYQQKPGQPPKLLIYRASNLESGIPARFSGSGSRTDFTLTINPVEADDVATYYCQQSNEDLTFG
Take B1: the affinity (unit not given) in test [9] worked out at 5.16e-11. For the same molecule, the Kd in [10] and in test [11] was 7 to 8 pM each time.
